Publication PMC11380581 (Cell, 2024)
Changes are numbered by the printed parent chain. In names and notes the source's numbering stands.

Columns and labels:
[1] = biological target: Flag-tagged NRC4 co-expressed with HA-tagged Bs2 and AvrBs2 (Figure S6F) (N. benthamiana); test: native gel or EMSA
[2] = biological target: NRC3-L21E-3xFlag (active NRC3); test: negative-stain EM
negative-stain EM = biological target: the molecule itself; test: negative-stain EM
cryo-EM structure [3] = biological target: the molecule itself; test: cryo-EM structure
cryo-EM structure [4] = biological target: the molecule itself; test: cryo-EM structure; remark: listed apart in the source
[5] = biological target: the molecule itself; test: native gel or EMSA + other: negative-stain EM

Molecule: Flag-tagged NRC4 co-expressed with HA-tagged Bs2 and AvrBs2 (Figure S6F) (from UniProt A0A5J6DCT7 1-881) (natural protein)
- stoichiometry N [1]: 6

Molecule: NRC3-L21E-3xFlag (active NRC3) (natural protein)
- stoichiometry N [2]: 6

B1: NRC0-EEE-3XFlag (active NRC0) (natural protein)
chain: MADAVVEFELLNEKQLELYHVDLLSGVKDEVESLHRELSLMKAFLKDSREKRSEYEYVRELVSQITIVAYEAEDIIDTFVTNAAMQKARSTVRRAFHVFDHSSKLRNVAKEIESIKVKVKEIYDKKMFGIQSLHGGESSHRSPPQKRVPMVEEENVVGFDDEARKISSRLTNGSEELEIISIVGMGGLGKTTLAKKVYTDSSIEFHFYNRAWIYVSQLYSRKEVFLGILDSLSLITDEMYKMNDEKLAGELFSHLRSKRYLVVIDDVWTMEAWDDLQMAFPKTATGSRILLTTRNTEVALHANPEGLPHHLRFLTHEESWELLSKKVFRKGICPLELEDIGLQIAKKCYGLPLAIVVVSGLLLKKEKTRDWWKKIANDVSSYVARDPKQCMDVLALSYKHLPDHLKVCFIYFGVFPEDFEIPVWKLLRLWTSEGFVQKMGQECLEDTAEEYLEDLVDRNLVLVAKKRASGRIKTCRIHDMLRDLSVKMGSEEKFLEVFKESAQNHSLSPISKYHRRLCVHSHFLDFITSRPFGPNVRSFLCFASEEMELLREHTSFLHEAFRLVRVLDLKYINFPRFPTEIVQLVHLRYIALSGNFRVLPASISKLWNLETLIVGTKSRELDIQVDIWKMSQFKHLYTSGLSCLRGPPAKTRKDNADPFVRRNIQTISTVLPDCCKENILARTPGLRKLGIRGKLATLVATNGDSSLFDNLAKLDNLETLKLLNDTFPLPPSQCQIPGLPQSYKFPPNLKKLTLSDTFLDWSHISTLGMLPNLEVLKLKDYAFKGTQWEPLDGGFRLLRVLHIGRTNLEHWNASGHHFPRLQQVFLKHCSSLNEIPFGLVEVSSLQNIELFWPTPAAAASARIIQQEKQEGDIKDNVFKLVIYPPDI
- stoichiometry N (negative-stain EM): 6

B2: NRC4 L9E D478V (NLR Required for Cell Death 4 with the L9E and D478V mutations) (natural protein, N. benthamiana)
chain: MADAVVNFEVENLLQLLTDNVKLIGSAKGELENLLKEVQHLKGFLDDAAKLPSDSEQWKVLVEEIQKTVHTAEDAVDKFVVQAKLHKEKNKMARILDVGHLATVRNLAAEVKGIHDQVKELRLNNQALQARPTLELPKKGSSETTQQGPALEDDEVVGFDEEANKVINRLVKESKDLDIIPVVGMPGLGKTTLARKIYKDPKLSYEFFGVHWVYVGQSYKIKDVFLNILKFFTRRTEDYQHEDVDALAKVIAGFINKGGRCLICLDDVWETKVIDYVKTIFPENEKGHRVMMTTRNKVLATYANSDPHDLKFLTPKESFELLVKRVFGKKPCPKDLVGHGESIAGKCGGVPLAVVVIAGALRGRPNTSDWIRVERNVVQHLYTNSEESCLKFVEMSYDHLPQEVQTCFLYCGVFPRGFDIPSWKVIRLWIAEGLIKPQESYTLEEIAEFYLNDLVNRNLVILQQKRSDGQIKTCRLHVMLHQFCKKEASNKWLFQEVSLTPDQAIPIEDPNKSRRLCIQPSNLKDFLSKKPSAEHVRSFYCFSSKEKQIRGLTPNDIKLIHKAFPLVRVLDVESLKFLFSKDFNQLFHLRYIAISGDFNAIPLTFGKFWNLQTLILNTSTSESTLDVKADIWNMLQLRHLHTNIPAKLQPPTATTSGKASCLQTLCMVAPESCEKEVLAKACHLKKLSIRGQMAAFLGAYKGGINNLVELKCLEQLKLLNDVLYMNKAPHLPQTFSQLVRTVKKLTLTNTRFAWSEADKLGQLESLEILKFKENAFAGDSWKPKMGFSALRVLWIERAEFETWEASEINFPVLRNLVLMSCDKLETVPFELANLSDLYEMRLENTSKAVKSAKAILESKTDKNIKFNLTIFPPEAGSKATQ
- stoichiometry N (cryo-EM structure [3]): 6
- stoichiometry N (cryo-EM structure [4]): 12

B3: NRC4 L9E (natural protein, N. benthamiana)
chain: B2 chain with V478D
- stoichiometry N (negative-stain EM): 6

B4: wild type NRC4, Flag-tagged (natural protein, N. benthamiana)
chain: B2 chain with E9L, V478D
- stoichiometry N [5]: 2
